PMC4132270

Assays:
[1] = target: Taq 1C2 (Thermus aquaticus) (UniProt P19821); test: EMSA; conditions: 3' end blocked with dideoxy TMP (3' ddT; unclear whether the printed 3' T is the ddT or it is added); 0.25 nM hairpin, 0.5-1000 nM enzyme, 1x Taq buffer (50 mM KCl for wild type, 95 mM KCl for mutants; full composition and pH not stated for this assay), 37 C …
[2] = target: Taq 42 G59W;L245M;L375V;E507K;K508R;E734G;F749I (Thermus aquaticus) (UniProt P19821); test: EMSA; conditions: 3' end blocked with dideoxy TMP (3' ddT; unclear whether the printed 3' T is the ddT or it is added); 0.25 nM hairpin, 0.5-1000 nM enzyme, 1x Taq buffer (50 mM KCl for wild type, 95 mM KCl for mutants; full composition and pH not stated for this assay), 37 C …

CTCCAGACACGACGCAGTTGCCCGATGGTCGACGTTCGCGAAAGCGAACGTCGACCATCGGGCAACT [hairpin primer-template]
Kd [1]: 1.9 nM | Kd [2]: 2.75 nM
